Legend:
[1] = test system: TF-positive A431 cells; test: Cytotoxicity assay of ADCs, A431 cells; format: cell-based, human; settings: Primary ADC
Procedure: To evaluate cytotoxicity of ADCs, TF-positive A431 and HPAF-II cells were plated in 384-well plates (Greiner Bio-One, Monroe, NC, USA) at 4×10^3 cells per well in 40 μL of media. Anti-TF antibodies conjugated to MC-vc-PAB-MMAE were serially diluted starting at 5 nM. Plates were incubated for 3 to 4 days, followed by lysis in CellTiter-Glo (CTG) assay reagent (Promega, Madison, WI, USA). CTG luminescence was measured on an Envision plate reader and the mean and standard deviation of 4 replicates were graphed in Prism.
To evaluate ADC cytotoxicity, A431 cells were plated in 384-well plates (Greiner Bio-One). Anti-TF antibodies conjugated to MC-vc-PAB-MMAE were serially diluted as shown. The TF-specific ADCs were added to A431 cells, with either a 72 h incubation or a 4 h incubation followed by removal of excess ADC and culture for another 68 h. A431 cells were lysed in CTG assay reagent after treatment. CTG luminescence was measured and the mean and standard deviation of 4 replicates graphed in Prism.

[2] = biological target: T1, chimeric human-rat TF constructs expressed on HEK293 cells (Homo sapiens, UniProt P13726); test: Epitope binning, chimeric TF construct mapping (live cell staining assay); format: binding; settings: construct hTF
T1 construct: expressed in transfected cells; host or cells: HEK293
T1 sequence (P13726 33-251, change not shown): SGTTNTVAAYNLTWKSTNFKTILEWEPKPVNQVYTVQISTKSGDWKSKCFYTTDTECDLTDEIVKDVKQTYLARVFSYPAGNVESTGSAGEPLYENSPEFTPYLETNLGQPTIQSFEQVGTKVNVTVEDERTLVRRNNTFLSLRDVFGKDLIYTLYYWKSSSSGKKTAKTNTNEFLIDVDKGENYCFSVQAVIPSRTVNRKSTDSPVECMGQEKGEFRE

[3] = biological target: T2, chimeric human-rat TF constructs expressed on HEK293 cells (Homo sapiens, UniProt P13726, A200N/K197R/K201T/N203H/S192D/S195T); test: as above; format: binding; settings: construct h159-174_r (6); human segment replaced by rat segment
T2 construct: expressed in transfected cells; host or cells: HEK293
T2 sequence (P13726 33-251 S192D/S195T/K197R/A200N/K201T/N203H): as the sequence (P13726 33-251, change not shown) above, with S160D, S163T, K165R, A168N, K169T, N171H counted along it

[4] = biological target: T3, chimeric human-rat TF constructs expressed on HEK293 cells (Homo sapiens, UniProt P13726, A200N/K201T/N203H); test: as above; format: binding; settings: construct h167-174_r (3); human segment replaced by rat segment
T3 construct: expressed in transfected cells; host or cells: HEK293
T3 sequence (P13726 33-251 A200N/K201T/N203H): as the sequence (P13726 33-251, change not shown) above, with A168N, K169T, N171H counted along it

[5] = biological target: T4, chimeric human-rat TF constructs expressed on HEK293 cells (Homo sapiens, UniProt P13726, E160K/E162S/F148Y/L140I/N156K/R163F/S147K/T144V/V151G/V155L); test: as above; format: binding; settings: construct h108-132_r (10); human segment replaced by rat segment
T4 construct: expressed in transfected cells; host or cells: HEK293
T4 sequence (P13726 33-251 L140I/T144V/S147K/F148Y/V151G/V155L/N156K/E160K/E162S/R163F): as the sequence (P13726 33-251, change not shown) above, with L108I, T112V, S115K, F116Y, V119G, V123L, N124K, E128K, E130S, R131F counted along it

[6] = biological target: T5, chimeric human-rat TF constructs expressed on HEK293 cells (Homo sapiens, UniProt P13726, I184G/K181N/T186I/W190R/Y188T); test: as above; format: binding; settings: construct h146-158_r (5); human segment replaced by rat segment
T5 construct: expressed in transfected cells; host or cells: HEK293
T5 sequence (P13726 33-251 K181N/I184G/T186I/Y188T/W190R): as the sequence (P13726 33-251, change not shown) above, with K149N, I152G, T154I, Y156T, W158R counted along it

[7] = biological target: T6, chimeric human-rat TF constructs expressed on HEK293 cells (Homo sapiens, UniProt P13726, K100N); test: as above; format: binding; settings: construct hTF_K68N
T6 construct: expressed in transfected cells; host or cells: HEK293
T6 sequence (P13726 33-251 K100N): as the sequence (P13726 33-251, change not shown) above, with K68N counted along it

[8] = biological target: T7, chimeric human-rat TF constructs expressed on HEK293 cells (Homo sapiens, UniProt P13726, K181N); test: as above; format: binding
T7 construct: expressed in transfected cells; host or cells: HEK293
T7 sequence (P13726 33-251 K181N): as the sequence (P13726 33-251, change not shown) above, with K149N counted along it

[9] = biological target: T8, chimeric human-rat TF constructs expressed on HEK293 cells (Homo sapiens, UniProt P13726, N203H/T229K); test: as above; format: binding; settings: construct hTF_N171H_T197K
T8 construct: expressed in transfected cells; host or cells: HEK293
T8 sequence (P13726 33-251 N203H/T229K): as the sequence (P13726 33-251, change not shown) above, with N171H, T197K counted along it

[10] = biological target: T9, chimeric human-rat TF constructs expressed on HEK293 cells (Homo sapiens, UniProt P13726, P226F); test: as above; format: binding; settings: construct h190-219_r (16); human segment replaced by rat segment
T9 construct: expressed in transfected cells; host or cells: HEK293
T9 sequence (P13726 with tags, fused parts or gaps P226F): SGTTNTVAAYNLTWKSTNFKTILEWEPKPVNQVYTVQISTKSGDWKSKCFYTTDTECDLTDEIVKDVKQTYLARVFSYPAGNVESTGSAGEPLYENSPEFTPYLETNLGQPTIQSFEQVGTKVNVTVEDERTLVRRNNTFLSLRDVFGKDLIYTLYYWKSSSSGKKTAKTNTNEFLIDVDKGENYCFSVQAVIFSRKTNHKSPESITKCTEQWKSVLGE

[11] = test system: chimeric human-rat TF constructs expressed on HEK293 cells; test: as above; format: binding

TF-011
IC50 ([1]; 4 hr, followed by washout, FIG. 20B): 0.17 nM | IC50 ([1]; 4 hr, followed by washout, FIG. 21A): 0.09 nM | IC50 ([1]; Continuous treatment, FIG. 20A): 0.05 nM | Antibody binding to TF construct ([2]; Table 53): 1 (between 50% and 150%, the antibody was considered a binder (1)) | Antibody binding to TF construct ([2]; Table 54): 1 (between 50% and 150%, the antibody was considered a binder (1)) | Antibody binding to TF construct [3]: 1 (between 50% and 150%, the antibody was considered a binder (1)) | Antibody binding to TF construct [4]: 1 (between 50% and 150%, the antibody was considered a binder (1)) | Antibody binding to TF construct [5]: 1 (between 50% and 150%, the antibody was considered a binder (1)) | Antibody binding to TF construct [6]: 1 (between 50% and 150%, the antibody was considered a binder (1)) | Antibody binding to TF construct [7]: 1 (between 50% and 150%, the antibody was considered a binder (1)) | Antibody binding to TF construct ([8]; construct h146-151_r (1), human segment replaced by rat segment): 1 (between 50% and 150%, the antibody was considered a binder (1)) | Antibody binding to TF construct ([8]; construct hTF_K149N): 1 (between 50% and 150%, the antibody was considered a binder (1)) | Antibody binding to TF construct [9]: 1 (between 50% and 150%, the antibody was considered a binder (1)) | Antibody binding to TF construct [10]: 1 (between 50% and 150%, the antibody was considered a binder (1)) | Antibody binding to TF construct ([11]; Table 53, construct rTF): 0 (less than 50%, the antibody was considered a non-binder (0)) | Antibody binding to TF construct ([11]; Table 54, construct rTF): 0 (less than 50%, the antibody was considered a non-binder (0)) | Constructs not bound by antibody ([11]; chimeric human-rat TF constructs): rTF, h1-107_r, h1-77_r, h39-77_r, h78-107_r, h78-107_r.v2, h94-107_r | Antibody binding to TF construct ([11]; construct h78-107_r (21), human segment replaced by rat segment): 0 (less than 50%, the antibody was considered a non-binder (0)) | Antibody binding to TF construct ([11]; construct h108-219_r (46), human segment replaced by rat segment): 1 (between 50% and 150%, the antibody was considered a binder (1)) | Antibody binding to TF construct ([11]; construct h159-219_r (27), human segment replaced by rat segment): 1 (between 50% and 150%, the antibody was considered a binder (1)) | Antibody binding to TF construct ([11]; construct r141-194_h (rat amino acid segment replaced by human segment, 20 amino acid changes)): 0 (less than 50%, the antibody was considered a non-binder (0))

Reference: patent US20240166765A1, “INFLAMMATORY DISEASE TREATMENT USING ANTI-TISSUE FACTOR ANTIBODIES” (Iconic Therapeutics LLC, priority 2020, published 2024)
